Source: patent US20040043420A1, “Method of identifying conformation-sensitive binding peptides and uses thereof” (priority 2003, published 2004)
Values belong to the molecule of their own block, whether it stands above or below them.

Columns and labels:
[1] = target: T1, glucocorticoid receptor (GR) (Homo sapiens, UniProt P04150); test: Mammalian cell (Huh-7) based peptide/glucocorticoid receptor interaction assay, luciferase; settings: all ligands (agonists, partial agonists, and antagonists)
T1 construct: in the yeast based system using full-length receptor; expressed in transfected cells; host or cells: yeast
T1 sequence (P04150 1-777): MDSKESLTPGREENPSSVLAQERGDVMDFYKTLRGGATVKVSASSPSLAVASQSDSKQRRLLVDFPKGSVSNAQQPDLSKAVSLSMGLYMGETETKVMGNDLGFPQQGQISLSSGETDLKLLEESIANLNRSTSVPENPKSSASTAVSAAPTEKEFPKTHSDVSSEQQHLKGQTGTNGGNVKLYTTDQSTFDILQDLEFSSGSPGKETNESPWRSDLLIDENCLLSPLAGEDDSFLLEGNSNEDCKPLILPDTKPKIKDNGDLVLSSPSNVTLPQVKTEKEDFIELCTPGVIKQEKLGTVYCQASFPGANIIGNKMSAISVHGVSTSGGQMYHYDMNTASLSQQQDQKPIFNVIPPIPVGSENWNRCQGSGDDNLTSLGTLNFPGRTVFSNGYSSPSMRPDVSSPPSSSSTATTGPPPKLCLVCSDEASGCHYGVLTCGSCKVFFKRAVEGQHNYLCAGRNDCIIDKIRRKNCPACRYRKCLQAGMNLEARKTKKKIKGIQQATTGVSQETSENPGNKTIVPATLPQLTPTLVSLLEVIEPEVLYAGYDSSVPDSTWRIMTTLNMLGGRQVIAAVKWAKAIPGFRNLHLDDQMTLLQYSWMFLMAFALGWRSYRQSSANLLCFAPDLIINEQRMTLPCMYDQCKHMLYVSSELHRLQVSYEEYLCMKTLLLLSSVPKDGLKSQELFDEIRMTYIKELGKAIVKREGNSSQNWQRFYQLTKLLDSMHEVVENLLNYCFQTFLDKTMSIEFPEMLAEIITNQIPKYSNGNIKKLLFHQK
Source text: (§1) We have performed a limited amount of in vivo screenings for peptides to GR in the yeast based system using full-length receptor and either dexamethasone or medroxyprogesterone acetate as ligands. We have a single peptide sequence that we have followed up on based on its specificity profile in yeast. This peptide was isolated on MPA liganded GR, and is termed GRMPA. Its sequence is as follows: […] (SEQ ID NO:268).
We have isolated numerous peptides using phage display to the GR ligand binding domain and have formatted cell based assays in mammalian cells for screening large compound sets. We have formatted the assay as stated above for 96-well plates and for 384-well plates. To format the assay to 384-well plates the number of cells per well were scaled down to 5,000 Huh-7 cells per well. Similar ratios of DNA constructs and lipection reagents were used in both assays for transfections prior to seeding the cells into the assay plates. We have also carried out a screen of a 60,000 compound set with one of the phage display isolated peptides in this mammalian cell based format. This peptide interacts with the glucocorticoid receptor in the presence of both agonists (e.g. fluticasone propionate and dexamethasone) and antagonists (RU486). For the compound screen cells were transfected in suspension with DNA constructs as described above prior to seeding 5,000 cells per well. […]

[2] = target: T1, glucocorticoid receptor (GR); test: Yeast-based two-hybrid test of peptide interaction with full-length glucocorticoid receptor; assay type: cell-based
Source text: as §1

[3] = target: T2, ER α (UniProt P03372 1-595, limits assumed); test: affinity of phage class for unliganded ER α
T2 construct: also called estrogen receptor α; ERα-ERE
T2 sequence (looked up): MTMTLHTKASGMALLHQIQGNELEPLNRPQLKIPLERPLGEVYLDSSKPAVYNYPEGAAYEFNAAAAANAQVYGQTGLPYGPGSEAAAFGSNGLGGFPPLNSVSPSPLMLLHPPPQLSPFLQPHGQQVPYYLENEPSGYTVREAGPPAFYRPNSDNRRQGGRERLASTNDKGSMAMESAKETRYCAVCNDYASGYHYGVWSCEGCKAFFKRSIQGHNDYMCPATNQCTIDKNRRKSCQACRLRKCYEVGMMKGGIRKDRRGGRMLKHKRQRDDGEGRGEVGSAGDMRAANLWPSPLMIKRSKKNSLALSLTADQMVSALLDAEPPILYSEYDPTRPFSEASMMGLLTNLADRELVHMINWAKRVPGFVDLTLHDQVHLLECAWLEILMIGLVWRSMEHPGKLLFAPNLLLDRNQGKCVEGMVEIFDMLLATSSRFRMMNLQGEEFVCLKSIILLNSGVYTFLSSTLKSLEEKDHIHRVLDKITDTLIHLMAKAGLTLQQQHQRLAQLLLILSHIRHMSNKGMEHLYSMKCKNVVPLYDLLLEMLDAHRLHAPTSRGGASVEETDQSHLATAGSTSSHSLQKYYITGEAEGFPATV

[4] = target: T2, ER α; test: peptide probe binding to ERα, Raloxifene
[5] = target: T2, ER α; test: peptide probe binding to ERα, GW7604
[6] = target: T3, ER β (UniProt Q92731 1-530, limits assumed); test: peptide probe binding to ERβ, Estriol
T3 construct: In vitro; also called estrogen receptor β; ERβ-ERE
T3 sequence (Q92731 whole entry): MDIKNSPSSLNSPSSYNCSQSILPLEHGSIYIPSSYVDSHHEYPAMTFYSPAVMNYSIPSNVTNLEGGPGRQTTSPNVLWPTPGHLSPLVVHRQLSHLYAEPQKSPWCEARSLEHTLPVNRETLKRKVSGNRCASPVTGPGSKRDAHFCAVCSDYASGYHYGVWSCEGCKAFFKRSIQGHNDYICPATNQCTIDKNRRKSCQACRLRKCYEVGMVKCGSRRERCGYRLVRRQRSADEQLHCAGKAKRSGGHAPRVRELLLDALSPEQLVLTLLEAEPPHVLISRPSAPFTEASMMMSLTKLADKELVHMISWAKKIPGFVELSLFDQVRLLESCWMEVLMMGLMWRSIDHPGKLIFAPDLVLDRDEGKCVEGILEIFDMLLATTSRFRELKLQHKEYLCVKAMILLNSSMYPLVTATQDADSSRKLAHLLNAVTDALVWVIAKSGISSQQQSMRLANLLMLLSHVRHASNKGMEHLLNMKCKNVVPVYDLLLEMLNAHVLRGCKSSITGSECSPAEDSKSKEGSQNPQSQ

[7] = target: T2, ER α; test: peptide probe binding to ERα, 4-OH Tamoxifen
[8] = target: T2, ER α; test: phage ELISA, ICI 182,780 1 µM
[9] = target: T2, ER α; test: peptide probe binding to ERα, Buffer
[10] = target: T2, ER α; test: peptide probe binding to ERα, ICI 182,780
[11] = target: T2, ER α; test: peptide probe binding to ERα, Diethylstilbesterol
[12] = target: T3, ER β; test: peptide probe binding to ERβ, 17β-Estradiol
[13] = target: T2, ER α; test: peptide probe binding to ERα, Estriol
[14] = target: T3, ER β; test: peptide probe binding to ERβ, Nafoxidine
[15] = target: T3, ER β; test: peptide probe binding to ERβ, Raloxifene
[16] = target: T3, ER β; test: peptide probe binding to ERβ, Diethylstilbesterol
[17] = target: T2, ER α; test: peptide probe binding to ERα, 17β-Estradiol
[18] = target: T3, ER β; test: peptide probe binding to ERβ, ICI 182,780
[19] = target: T3, ER β; test: peptide probe binding to ERβ, 17α-Estradiol
[20] = target: T3, ER β; test: peptide probe binding to ERβ, 4-OH Tamoxifen
[21] = target: T3, ER β; test: peptide probe binding to ERβ, Buffer
[22] = target: T3, ER β; test: phage ELISA, ICI 182,780 1 µM
[23] = target: T3, ER β; test: peptide probe binding to ERβ, GW 7604
[24] = target: T2, ER α; test: peptide probe binding to ERα, Nafoxidine
[25] = target: T3, ER β; test: peptide probe binding to ERβ, Clomiphene
[26] = target: T2, ER α; test: peptide probe binding to ERα, 17α-Estradiol

Interaction with GR in yeast in the presence of full agonists ([2]; fluticasone propionate and dexamethasone): not full agonists
Interaction with GR in yeast in the presence of partial agonists and antagonists ([2]; partial agonists MPA, cortivazol, deoxycorticosterone, antagonist RU486): interacted
Molecule: EFVARYGQLLGWRHPCS [GRMPA]
Interaction with GR in mammalian cells in the presence of ligands [1]: interacted in the presence of all ligands

binding result [3]: binds
B1: #41 ER + estradiol (Table 3) (peptide)
peptide: HGPLTLNLLRSSGG

Equiv. [4]: 0%
Equiv. [5]: 0%
Equiv. [6]: -75%
Equiv. [7]: 100%
phage ELISA grade [8]: 0
Equiv. [9]: 0%
Equiv. [10]: -100%
Equiv. [11]: 0%
B2: T1-10 (peptide)
peptide: SRLPPSVFSMCGSEVCLSR
notes: also called 9T-β; 9Tβ

Equiv. [12]: 0%
Equiv. [13]: 0%
Equiv. [4]: 0%
Equiv. [14]: 0%
Equiv. [15]: 0%
Equiv. [16]: 0%
Equiv. [17]: 0%
Equiv. [5]: 0%
Equiv. [18]: 0%
Equiv. [6]: 0%
Equiv. [7]: 100%
Equiv. [19]: 0%
Equiv. [20]: 100%
Equiv. [21]: 0%
phage ELISA grade [22]: 0
Equiv. [9]: 0%
Equiv. [23]: 0%
Equiv. [24]: 0%
Equiv. [10]: 0%
Equiv. [11]: 0%
Equiv. [25]: 13%
Equiv. [26]: 0%
B3: 14T-β (peptide)
peptide: SSPGSREWFKDMLSR
notes: also called α/β V; AB5
